± gives the standard deviation.
Assay: protein stability index of a GFP-peptide fusion (GPS, HEK-293T) (PSI 1-6); higher = more stable
[1] = treatment: DMSO, c terminus: a fixed tail appended
[2] = treatment: MLN4924 1 uM, 8 h, c terminus: a fixed tail appended
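Note: 24-mer peptide tiles fused after GFP, lentivirally expressed, FACS-sorted into six equal bins by GFP/DsRed ratio, decoded by Illumina sequencing, PSI is the read-weighted mean bin number.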

EHERAHRGEKPHGCSLCGKAFYKR [ZNF649]
protein stability index [1]: 2.79 ± 0.11 | protein stability index [2]: 3.45 ± 0.59

VVAILAAACLLQLDGLIQQCGETM [GMCL1]
protein stability index [1]: 3.23 ± 0.42 | protein stability index [2]: 2.92 ± 0.39

ELCRDAAQFRLLSEVEELNMSLTA [TEKT4]
protein stability index [1]: 2.85 ± 0.34 | protein stability index [2]: 2.77 ± 0.28

WTRITCAEEGWSPTPKCLRLCFFP [CFHR2]
protein stability index [1]: 2.82 ± 0.71 | protein stability index [2]: 2.6 ± 0.46

FAQYDSFHVDSAAEYYRLHLEGYH [TNXB]
protein stability index [1]: 2.43 ± 0.81 | protein stability index [2]: 2.26 ± 0.23

GDPRPKIVWNKKGKKVSNQRFEVI [PTPRD]
protein stability index [1]: 2.94 ± 0.24 | protein stability index [2]: 3.46 ± 0.64

FPTVVWTWWIMFLSTFSVPYFLFQ [SOAT1]
protein stability index [1]: 3.1 ± 0.56 | protein stability index [2]: 2.99 ± 0.45

HYKKAPIFTSEHGEKLYLVRALQ [NCK2]
protein stability index (treatment: DMSO, c terminus: native): 2.42 ± 0.61 | protein stability index (treatment: MLN4924 1 uM, 8 h, c terminus: native): 2.2 ± 0.34

FLCAAGDAGEESRVQVLKNEVRRG [TIAF1]
protein stability index [1]: 4.18 ± 0.31 | protein stability index [2]: 4.22 ± 0.11

NLLLAKGANINAFDKKDRRALHWA [ANKRD44]
protein stability index [1]: 2.32 ± 0.34 | protein stability index [2]: 2.5 ± 0.17

KSELSDGIAILVGSNDRVQGVISQ [TRIM55]
protein stability index [1]: 3.46 ± 0.31 | protein stability index [2]: 3.52 ± 0.34

YVEIRTFEPRLLVQSIELQRPRFI [VPS39]
protein stability index [1]: 2.33 ± 0.76 | protein stability index [2]: 2.65 ± 0.7

HQLGFIHRDIKPDNLLLDAKGHVK [STK38L]
protein stability index [1]: 3.71 ± 0.31 | protein stability index [2]: 4.12 ± 0.26

IMDANQTYLVSERLEREERNQTQV [FAF2]
protein stability index [1]: 4.16 ± 0.2 | protein stability index [2]: 4.32 ± 0.1

IELNGGQPPLTYKRFQTLISKMEP [CRY1]
protein stability index [1]: 2.53 ± 0.3 | protein stability index [2]: 2.51 ± 0.16

KMKTRELHRESSNFDSIYICPSTF [HDAC6]
protein stability index [1]: 2.26 ± 0.36 | protein stability index [2]: 2.71 ± 0.39

SDSPDAADSTSFDVQLGDIILTAT [PPTC7]
protein stability index [1]: 3.98 ± 0.27 | protein stability index [2]: 4.01 ± 0.18

GNNPNGREAKMICFKSVAKTPYDT [ELOA2]
protein stability index [1]: 3.84 ± 0.43 | protein stability index [2]: 3.93 ± 0.3

EVPEMSPVTCCDVSSNNRLVVTGS [TLE6]
protein stability index [1]: 4.35 ± 0.31 | protein stability index [2]: 4.57 ± 0.1

GSNDRVQGVISQLEDTCKTIEECC [TRIM55]
protein stability index [1]: 4.71 ± 0.098 | protein stability index [2]: 4.77 ± 0.31

QLSMLPHLADLVSYSIQKVIGFAK [VDR]
protein stability index [1]: 2.28 ± 0.2 | protein stability index [2]: 2.48 ± 0.5

TSPSSNNSSEELSSALHLSKGMSI [NECAB1]
protein stability index [1]: 4.26 ± 0.19 | protein stability index [2]: 4.24 ± 0.16

EEEDREEEDENGLPRRRGLRKKKT [NEUROD6]
protein stability index [1]: 5.53 ± 0.59 | protein stability index [2]: 5.52 ± 0.37

SQGQWGRAWEVDWFSLASVIFLLL [DHCR7]
protein stability index [1]: 2.68 ± 0.033 | protein stability index [2]: 2.39 ± 0.48

CCINSHCGWPRGKDAPCYESDTDI [DRICH1]
protein stability index [1]: 2.94 ± 0.3 | protein stability index [2]: 3.02 ± 0.29

AVCLLGVGTMVGADILAGREDNSG [SLC35F2]
protein stability index [1]: 3.17 ± 0.5 | protein stability index [2]: 3.11 ± 0.2

KIREKEEWIKLDYHRRHNPKTNED [IQUB]
protein stability index [1]: 4.23 ± 0.28 | protein stability index [2]: 4.74 ± 0.13

DDEEFEYRHVMLPKDIAKLVPKTH [CKS1B]
protein stability index [1]: 4.38 ± 0.23 | protein stability index [2]: 4.39 ± 0.32

SDFLTLHSIIISLVEAGAHTDMTN [FEM1B]
protein stability index [1]: 2.87 ± 0.43 | protein stability index [2]: 2.93 ± 0.54

DQLIGQGIIVKDARLNGSVASYIL [TENT5D]
protein stability index [1]: 2.3 ± 0.33 | protein stability index [2]: 2.19 ± 0.45

TFLVFSKAELGALPHDFIDSLEKT [NLN]
protein stability index [1]: 2.13 ± 0.26 | protein stability index [2]: 2.5 ± 0.25

VDALKSDKKVRTIIIRSEVPGIFC [AUH]
protein stability index [1]: 2.01 ± 0.38 | protein stability index [2]: 2.35 ± 0.73

ALLESSLRQAQQNMDPKAAEEEEE [CCND1]
protein stability index [1]: 5.28 ± 0.29 | protein stability index [2]: 5.42 ± 0.25

ITYQPAASTKMCEQALGKGCGADS [PLK2]
protein stability index [1]: 4.06 ± 0.36 | protein stability index [2]: 4.44 ± 0.24

DPHSGHFVALKSVRVPNGGGGGGG [CDK4]
protein stability index [1]: 4.01 ± 0.12 | protein stability index [2]: 3.87 ± 0.33

SPSPMDPHMAEQTFEQAIQAASRI [CDC25B]
protein stability index [1]: 4.68 ± 0.16 | protein stability index [2]: 4.56 ± 0.25

LDFSKKILHTAWHPSENIIAVAAT [PPP2R2B]
protein stability index [1]: 2.05 ± 0.2 | protein stability index [2]: 2.3 ± 0.039

HLYIYSIHSIPKGTEITIAFDFDY [KMT2E]
protein stability index [1]: 3.39 ± 0.45 | protein stability index [2]: 3.08 ± 0.33

LAIQEMVSLTSPSAPPTSRTSSGN [PPFIA4]
protein stability index [1]: 3.88 ± 0.19 | protein stability index [2]: 4.05 ± 0.17

HVQDPQNTVKVQVLYPDGQAQMIH [INTS4]
protein stability index [1]: 3.74 ± 0.23 | protein stability index [2]: 3.52 ± 0.29

WYQVRCLFQSPLFAKAGDTLSGTC [CARM1]
protein stability index [1]: 2.77 ± 0.72 | protein stability index [2]: 2.35 ± 0.53

TFEQAIQAASRIIRNEQFAIRRFQ [CDC25B]
protein stability index [1]: 2.38 ± 0.48 | protein stability index [2]: 2.01 ± 0.32

ASLKGYQWLKDKILSEEGRRQQAK [KCNAB2]
protein stability index [1]: 3.69 ± 0.18 | protein stability index [2]: 3.67 ± 0.21

PRLHIVKADENNGFGSKNTAFCTH [TBX5]
protein stability index [1]: 3.43 ± 0.12 | protein stability index [2]: 3.28 ± 0.049
